Tests used:
Botrytis cinerea = Botrytis cinerea necrosis areas on treated detached tomato leaves; assay type: in vivo, Botrytis cinerea on Solanum lycopersicum
Protocol: For the performance of assays on the phytopathogenic Botrytis cinerea and Alternaria alternata fungi, the present inventors used spores of this microorganism obtained from cultures on solid PDA (Potato Dextrose Agar) sporulation substrate. The plates were inoculated with 20 μl of a conidial suspension at a concentration of 1×10^6 spores/ml and incubated for 15 days at 25° C. in the presence of diffused light, so as to obtain complete sporulation. The spores were then collected in 5 ml of sterile water and, in order to remove the mycelium, were filtered through glass wool, washed with sterile distilled water and collected by centrifugation at room temperature. The concentration of spores suitable for inoculation (10^5-10^7 spores/ml) was determined by the serial dilution method using a Burker cell counting chamber for spore counting.
The assay was carried out on a detached leaf by taking a compound leaf for each treated tomato plant and for each control plant. Each leaflet of the compound leaf was marked with 3 markers in order to guide the subsequent application of the spores and detection of the pathogen developing necrotic areas.
The leaves were treated by applying 2 μl of a composition comprising the peptides PS1-70 and PS1-120 of the invention at a concentration of 100 pM, 100 fM or 1×PBS for the control leaves. After 6 hours, the time necessary for the perception of the peptides, the leaves were detached from the plant and inoculations with 10 μl of spore solution were carried out in the internerve spaces and near the previously marked points. Monitoring was carried out by measuring the necrosis areas (expressed in mm^2) 1, 3, 5, 8 days after inoculation of the pathogen. The necrosis areas recorded on the control leaves were much larger than those detected on plants treated with the peptides of the invention. This difference increased as a function of the time elapsed since inoculation. The resistance inducing effect of the picomolar treatment is already statistically significant from the first day of inoculation of the pathogen up to the eighth day where values of 33 mm^2 were reached on the control leaves, unlike the treated leaves where values not exceeding 18 mm^2 were recorded for both peptides (FIG. 12A).

[1] = test system: Spodoptera littoralis larvae; assay: Bioassay on Spodoptera littoralis larvae fed with peptide-treated tomato leaves; assay type: in vivo
Protocol: Briefly, S. littoralis larvae were grown in a climate chamber at 25° C., 70% relative humidity (RH), with a 16-hour light and 8-hour dark photoperiod and fed with an artificial diet until completion of the first moult. For the bioassays, 150 larvae for each thesis were grown on tomato leaves for the entire duration of the second instar to adapt them to the different diet. The newly moulted third-instar larvae up to the moult stage were fed with plants on which a composition comprising peptides PS1-70 and PS1-120 had been applied at 100 pM and 100 fM concentrations in 1×PBS buffer. Larvae fed with plants treated with 1×PBS buffer only were used as a control. Bioassays were carried out under the same environmental conditions, in 32-well plastic trays containing 1.5% (w/v) agar and 0.005% (w/v) methyl parahydroxybenzoate, which are useful for creating a humid environment for maintaining cell turgor of tomato leaves. Each experimental group consisted of 32 larvae. The survival of the larvae was monitored daily, and their weight every other day. […] A significant decrease in the survival of larvae fed with leaves of plants treated with the peptides of the invention compared to those fed with leaves of the control plants was also observed for both assays (FIGS. 10B and 10D). […] The same assay scheme was carried out by the present inventors by feeding S. littoralis larvae with leaves treated with the peptide PS1-70 and with peptides having the sequences SEQ ID NO. 3, 5, and 8 at femtomolar concentration. […] A significant decrease was also observed in the survival of larvae fed with peptide-treated leaves compared to those fed with the control leaves (FIG. 11B). […] 8, SEQ ID NO. 3, and SEQ ID NO. 5 (FIG. 11B).

[2] = test system: cat1, tft1, Sam, HSFA2, HSP70, HSP90, MPK1 and WRKY40 genes; assay: Salt stress gene expression in tomato plants irrigated with 100 pM peptide; assay type: in vivo; settings: 100 pM irrigation
Protocol: The analysis was carried out on the cat1, tft1, Sam, HSFA2, HSP70, HSP90, MPK1 and WRKY40 genes. The asterisks indicate the statistical significance of the data by Student's t-test (*p<0.05; **p<0.01; ***p<0.001).
An experiment was also set up to verify the efficiency of the peptides PS1-70, PS1-120 and SEQ ID NO.5, when administered at femtomolar concentrations, in promoting tolerance to a high salt stress condition.

[3] = femtomolar, day 8, control 20 mm^2 (FIG. 12B)
[4] = day 13, leaves treated at 100 fM, control 44 mg (FIG. 10C)
[5] = day 15, 100 pM, control 96.87% (FIG. 10B)
[6] = day 15, leaves treated at 100 pM, control 38 mg (FIG. 10A)

Row | Molecule | necrosis areas (Botrytis cinerea; 100 fM, day 8, control 11.72 mm^2 (FIG. 13)) [mm^2] | necrosis areas (Botrytis cinerea; [3]) [mm^2] | survival rate of larvae ([1]; day 13, 100 fM, control 100% (FIG. 10D)) [%] | average weight of larvae ([1]; day 13, femtomolar concentration, control 59 mg (FIG. 11A)) [mg] | survival rate of larvae ([1]; day 13, femtomolar concentration, control 100% (FIG. 11B)) [%] | average weight of larvae [1, 4] [mg] | survival rate of larvae [1, 5] [%] | average weight of larvae [1, 6] [mg] | activation of salt stress-responsive genes and transcription factors ([2]; 48 hours, 0 mM NaCl (FIG. 17A)) | tolerance to salt / induction of responsive genes ([2]; moderate salt stress 80 mM NaCl (FIG. 17B))
1 | PS1-70: recombinant peptide contained in the amino-terminal region of the Prosystemin polypeptide, free of Systemin; expressed in E. coli (protein, Peptide PS1-70, recombinant peptide contained in the amino-terminal region of the Prosystemin polypeptide, free of Systemin; expressed in E. coli) MGTPSYDIKNKGDDMQEEPKVKLHHEKGGDEKEKIIEKETPSQDINNKDTISSYVLRDDTQEIPKMEHEE | 7.69 | 6.69 | 0 | 22 | 31.25 | 11 | 34.37 | 15 | able to activate a series of genes and transcription factors responsive to salt stress | more tolerant to salt than the untreated control plants
2 | PS1-120: recombinant peptide contained in the amino-terminal region of the Prosystemin polypeptide, free of Systemin; expressed in E. coli (protein, Peptide PS1-120, recombinant peptide contained in the amino-terminal region of the Prosystemin polypeptide, free of Systemin; expressed in E. coli) MGTPSYDIKNKGDDMQEEPKVKLHHEKGGDEKEKIIEKETPSQDINNKDTISSYVLRDDTQEIPKMEHEEGGYVKEKIVEKETISQYIIKIEGDDDAQEKLKVEYEEEEYEKEKIVEKET | – | 5.19 | – | – | – | 12 | 31.25 | 20 | – | –
